The record followed here is patent publication US10487307B2, “Culture method for pluripotent stem cells” (FUJIFILM CORPORATION, priority 2013, dated 2019).

For one data set, the system named is iPS cells. Nature of the data set: Growth evaluation, number of cells after 3 days. The settings on record: 5,000 cells/well. The format is cell-based, human. Here is the method: By adding RCP-1 to RCP-11 and Human Recombinant Laminin-511 as control at the concentration shown in Table 9, samples 1 to 12 were prepared. The samples were seeded into a 96-well plate, onto which each of the polypeptides was adsorbed in the same manner as in <Cell adhesiveness evaluation 1>, at a ratio of 5,000 cells/well and cultured for 3 days in a CO2 incubator at 37° C. The number of cells after 3 days was calculated in the same manner as in <Cell adhesiveness evaluation 1>. In Table 9, the number of cells after 3 days is expressed as a ratio calculated by regarding the number of cells obtained by using the sample 1 as being 100%.

In a further data set the test system is human iPS cells ("Tic"). Nature of the data set: Cell adhesiveness evaluation 1 (ALP activity of adhesive iPS cells). The settings on record: 30,000 cells/well, 24 hours, natural vitronectin (sample 15) = 100%, n=3. In kind it is cell-based. The essentials: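 Peptides and controls were adsorbed onto wells for 2 h at 37 °C. Single-cell human iPS cells in TeSR2 with 10 μM Y-27362 were seeded at 30,000 cells/well. After 24 h, non-adherent cells were washed off and adherent cells fixed; cell number came from ALP activity via a calibration curve. Adhesion is expressed relative to natural vitronectin (100%), n=3.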

Data set [1] can be described thus: Aggregation after dialysis of purified polypeptide solution. The format is physicochemical. Details: key: G: The formation of an aggregate was not observed.; A: The formation of particles having a particle size of about 100 nm was observed.; B: The formation of an aggregation of particles having a particle size of equal to or greater than 1 mm was visually observed. Here is the method:
For RCP-1 to RCP-11, each of the purified polypeptide solutions was dialyzed using Slide-A-Lizer (3.5 K MWCO.). Basically, by using a dialysis buffer (PBS, 1.5 M NaCl, 0.5 M L-arginine, 1 mM EDTA, pH 7.4) as an outer dialysate, urea was removed by stepwise dialysis. The concentration of the end-product of dialysis was calculated from the absorbence at 280 nm by using NanoDrop (Thermo Fisher Scientific Inc.).
Whether or not aggregation was occurred was evaluated based on the scale of A, and B as shown below.
G: The formation of an aggregate was not observed.
A: The formation of particles having a particle size of about 100 nm was observed.
B: The formation of an aggregation of particles having a particle size of equal to or greater than 1 mm was visually observed.

B1: RCP-11: recombinant polypeptide for culture, SEQ ID NO: 25; vitronectin positions 1-55, 269-277, 295-341, 342-373, C274S (protein)
chain: MDQESCKGRCTEGFNVDKKCQCDELCSYYQSCCTDYTAECKPQVTRGDVFTMPEDESQEESEGSEDIFELLFWGRTSAGTRQPQFISRDWHGVPGQVDAAMAGRIYISGMAPRPSLAKKQRFRHRNRKGYRSQRGHSRGRNQN
modifications: Vitronectin-derived Recombinant Protein (RCP-11)
notes: vitronectin positions 1-55, 269-277, 295-341, 342-373, C274S
Take B1: the “Number of cells after 3 days (%)” value with iPS cells (added amount 5 μg/cm^2, sample 1 (RCP-1) = 100%) stood at 153.5%. The “Cell adhesion rate (%)” value in the data set on human iPS cells ("Tic") (added amount 5 μg/cm^2) is 95.9 ± 4.6%. Further, the Aggregation entry in data set [1] is “A”.

B2: RCP-1: recombinant polypeptide for culture, SEQ ID NO: 15; human vitronectin positions 1-55 and 269-459 with N-terminal methionine (protein)
chain: MDQESCKGRCTEGFNVDKKCQCDELCSYYQSCCTDYTAECKPQVTRGDVFTMPEDEPSQEECEGSSLSAVFEHFAMMQRDSWEDIFELLFWGRTSAGTRQPQFISRDWHGVPGQVDAAMAGRIYISGMAPRPSLAKKQRFRHRNRKGYRSQRGHSRGRNQNSRRPSRATWLSLFSSEESNLGANNYDDYRMDWLVPATCEPIQSVFFFSGDKYYRVNLRTRRVDTVDPPYPRSIAQYWLGCPAPGHL
modifications: Vitronectin-derived Recombinant Protein (RCP-1)
As to B2, the “Number of cells after 3 days (%)” value in the data set with iPS cells (added amount 80 μg/cm^2, sample 1 = 100%) is 100.0%. For the same molecule, the “Cell adhesion rate (%)” value with human iPS cells ("Tic") (added amount 200 pmol/cm^2) is 109.3 ± 5.3%. Also, the Aggregation entry in data set [1] is recorded as “A”.

B3: RCP-5: recombinant polypeptide for culture, SEQ ID NO: 19; vitronectin positions 1-55, 302-341, 342-373 (protein)
chain: MDQESCKGRCTEGFNVDKKCQCDELCSYYQSCCTDYTAECKPQVTRGDVFTMPEDEFWGRTSAGTRQPQFISRDWHGVPGQVDAAMAGRIYISGMAPRPSLAKKQRFRHRNRKGYRSQRGHSRGRNQN
modifications: Vitronectin-derived Recombinant Protein (RCP-5)
In the case of B3, the “Number of cells after 3 days (%)” value in the data set on iPS cells (added amount 10 μg/cm^2, sample 1 (RCP-1) = 100%) turned out to be 121.2%. Also, in the data set on human iPS cells ("Tic") (added amount 10 μg/cm^2), the “Cell adhesion rate (%)” value is given as 94.1 ± 6.5%. Further, the Aggregation result in data set [1] was “G”.
